The source of these data is publication PMC3084675 (Molecular Biology of the Cell, 2011).

Test [1] concerns the target FAK (focal adhesion kinase) FERM domain (UniProt O35346). As to the kind of experiment: GST-FERM pull-down of His-Dyn2. The settings on record: reference: His-Dyn2 wild type from TKB1 (phosphorylated); sites Y231,Y597.
The target in test [2] is FAK (focal adhesion kinase) (UniProt O35346). As to the kind of experiment: S-bead precipitation of SFB-FAK, Dyn2 blot. The settings on record: reference: wild-type Dyn2; sites Y231,Y597.
In test [3] the target is SFB-FAK (S protein, Flag, and streptavidin binding peptide triple tagged FAK) (rat, UniProt O35346 1-1055). As to the kind of experiment: co-IP.
Chain of SFB-FAK (S protein, Flag, and streptavidin binding peptide triple tagged FAK) (O35346 whole entry, the tested form may be a part): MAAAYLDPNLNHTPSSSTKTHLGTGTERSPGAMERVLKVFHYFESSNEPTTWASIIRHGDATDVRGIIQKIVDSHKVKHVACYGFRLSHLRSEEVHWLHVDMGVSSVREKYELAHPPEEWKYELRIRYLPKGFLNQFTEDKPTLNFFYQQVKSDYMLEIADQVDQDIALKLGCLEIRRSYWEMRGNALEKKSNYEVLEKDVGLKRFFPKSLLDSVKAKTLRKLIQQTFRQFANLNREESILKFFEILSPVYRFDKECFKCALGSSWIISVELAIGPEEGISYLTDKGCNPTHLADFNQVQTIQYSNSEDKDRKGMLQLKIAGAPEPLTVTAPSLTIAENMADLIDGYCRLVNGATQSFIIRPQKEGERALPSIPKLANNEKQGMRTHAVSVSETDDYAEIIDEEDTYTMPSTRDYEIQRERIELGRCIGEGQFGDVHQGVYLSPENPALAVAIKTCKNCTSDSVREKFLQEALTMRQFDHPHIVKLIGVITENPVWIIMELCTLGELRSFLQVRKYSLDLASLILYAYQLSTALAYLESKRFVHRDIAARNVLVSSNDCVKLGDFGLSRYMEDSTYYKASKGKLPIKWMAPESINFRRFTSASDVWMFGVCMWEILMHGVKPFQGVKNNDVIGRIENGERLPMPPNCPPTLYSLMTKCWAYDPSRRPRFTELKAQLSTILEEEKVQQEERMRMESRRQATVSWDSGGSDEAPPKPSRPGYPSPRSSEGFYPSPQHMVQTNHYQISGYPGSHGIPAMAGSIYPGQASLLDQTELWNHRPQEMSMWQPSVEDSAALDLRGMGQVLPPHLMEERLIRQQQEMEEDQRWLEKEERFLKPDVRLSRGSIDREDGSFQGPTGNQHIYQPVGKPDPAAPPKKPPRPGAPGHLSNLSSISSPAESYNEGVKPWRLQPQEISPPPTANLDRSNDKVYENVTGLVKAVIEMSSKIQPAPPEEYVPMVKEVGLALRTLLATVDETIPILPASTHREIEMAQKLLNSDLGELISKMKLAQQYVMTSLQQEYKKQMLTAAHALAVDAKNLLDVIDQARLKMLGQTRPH
Test [4] has as its target T1, GST-FERM (FERM domain of FAK) (rat, UniProt O35346 35-355).
T1 sequence (looked up): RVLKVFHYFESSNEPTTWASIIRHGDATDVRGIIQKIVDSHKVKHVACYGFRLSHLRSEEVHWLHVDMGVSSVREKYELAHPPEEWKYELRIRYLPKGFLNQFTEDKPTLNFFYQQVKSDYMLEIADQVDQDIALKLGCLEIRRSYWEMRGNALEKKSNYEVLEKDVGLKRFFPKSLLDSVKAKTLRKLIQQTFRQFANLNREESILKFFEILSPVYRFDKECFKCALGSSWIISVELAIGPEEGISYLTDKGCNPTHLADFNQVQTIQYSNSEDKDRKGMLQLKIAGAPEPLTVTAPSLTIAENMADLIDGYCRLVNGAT
As to the kind of experiment: pull-down.

Regarding “Dyn2 (dynamin-2) (from UniProt P39052) His-Dyn2 Y231F/Y597F from TKB1”, the fold change entry in test [1] is on record as “weaker; reference threefold”. For the molecule “Dyn2 (dynamin-2) (from UniProt P39052) Dyn2 Y231F/Y597F (YF)”, the fold change result in test [2] is listed as “weaker; reference 3.2 ± 0.6-fold”.

B1: Dyn2 WT (dynamin-2, wild type), expressed in cells (natural protein)
chain: MGNRGMEELIPLVNKLQDAFSSIGQSCHLDLPQIAVVGGQSAGKSSVLENFVGRDFLPRGSGIVTRRPLILQLIFSKTEYAEFLHCKSKKFTDFDEVRQEIEAETDRVTGTNKGISPVPINLRVYSPHVLNLTLIDLPGITKVPVGDQPPDIEYQIKDMILQFISRESSLILAVTPANMDLANSDALKLAKEVDPQGLRTIGVITKLDLMDEGTDARDVLENKLLPLRRGYIGVVNRSQKDIEGRKDIRAALAAERKFFLSHPAYRHMADRMGTPHLQKTLNQQLTNHIRESLPTLRSKLQSQLLSLEKEVEEYKNFRPDDPTRKTKALLQMVQQFGVDFEKRIEGSGDQVDTLELSGGARINRIFHERFPFELVKMEFDEKDLRREISYAIKNIHGVRTGLFTPDLAFEAIVKKQVVKLKEPCLKCVDLVIQELISTVRQCTSKLSSYPRLREETERIVTTYIREREGRTKDQILLLIDIEQSYINTNHEDFIGFANAQQRSTQLNKKRAIPNQGEILVIRRGWLTINNISLMKGGSKEYWFVLTAESLSWYKDEEEKEKKYMLPLDNLKIRDVEKGFMSNKHVFAIFNTEQRNVYKDLRQIELACDSQEDVDSWKASFLRAGVYPEKDQAENEDGAQENTFSMDPQLERQVETIRNLVDSYVAIINKSIRDLMPKTIMHLMINNTKAFIHHELLAYLYSSADQSSLMEESAEQAQRRDDMLRMYHALKEALNIIGDISTSTVSTPVPPPVDDTWLQNTSSHSPTPQRRPVSSVHPPGRPPAVRGPTPGPPLIPMPVGATSSFSAPPIPSRPGPQNVFANNDPFSAPPQIPSRPARIPPGIPPGVPSRRAPAAPSRPTIIRPAEPSLLD
Take B1: in test [3], the “fold co-precipitated relative to Dyn2 YF” value amounted to 3.2 ± 0.6 fold.

B2: His-Dyn2 WT purified from TKB1 E. coli (pDyn2 protein) (natural protein)
chain: B1 chain
modifications: tyrosine-phosphorylated: recognised by the 4G10 and pDyn2 (pTyr-231) antibodies
Take B2: the “fold association relative to Dyn2 YF” value in test [4] came out at 3 fold.
